Source: the NTF2 design screens of Basanta et al. (2020)

Experiment: protease stability score; higher = more stable; yeast display proteolysis, trypsin and chymotrypsin;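 also: log10 excess protease needed over predicted unfolded state with 0 meaning unfolded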

Row | Sequence | protease stability score
1 | DEEVEHQFRTYERALRQGDEQELRDQVDKNAEIEYGDRKIHGMDRAARKIARRVRELRVEDNFVSLEVKENHVQKNVDVVIEVNGRPVRFRADMQVQVHNGKVKEIRVQVPEEVQKRVKE | 0.127
2 | DEDEARKVMKKWQEVVQKGDPDDVRKLYKPNVKWEAADTRRQGVDVVVEQMKKVQDKGVEFQVRKAKVEGDRFQVVYDVKLGNDTATFTVQVEARGGQIDEVRAKVDEKAYKVMKKG | 0.123
3 | DEDDVRRVAEQIVQALEKGDEQRMMELADPNAKARVGEKDYHGREDLHKIVKELKDDFDHARVESVEVDGDKVVIHMVVKSNGKDRRMIIRFRVHNGKVTEMEFRTG | 1.75
4 | DHRAFELAKNILEAIRTNDPDTVKHQLDKNATLRYGEFEVHGREDASRFVETLIRKMRVEFDIKDYHVHGDSAVMDADVKVERNGRPDTRKLNVNVNVHNGKMSHIVFELRG | 0.693
5 | DERNQKEVADKMYTAFRHGDPRKINKLADKDVTARYGDKVVSGRDDMVRQIDEIRKSIDHMSITSIEVHNGKADATLRFVVNGRDLQMKLVIVIHNGKVKHLSVQFRDDEQKKVLER | -0.174
6 | DSKEVRKAEELAKAVRTGDPDTIVKLMDPNARLKVGDREYRGQKDVQKFLKRVLDEIRVKLDVQDIKAHNGKVKVRATVVQRKNGTPHHRTMRMWVQMNNGHVEELSVSNDS | 0.401
7 | DKEMASVVERWLDALQRNDPDQANNNADKDATFDVGDKKVKGRDTLKKLVEDLRREMRFNITSMSITVHGDKVVVTYRVSMQHDGQPMQHRYFLHAQDKNGHIHNLHVQKSD | 0.44
8 | DEKDQTRKAEKAARIFQHGNPDDVREMADEDVKVQIGDNRINGRHNLDTEVKELRDRVDDAKIEDFRASGNTIVLHIRFVVDGVDVHITIHINYHNGKAKRIDVKYTDERQKRRQDS | 0.739
9 | DEEKEKRTARQVADVLRSGNPDEMMKLADKDAEVRVGDHVLHGREEISKLMHELRRRIDHLEIKHVEVDNGSVNIVYVVRHNGKTEVVVLHVDFHNGKIREMTVRSG | 1.36
10 | DEEARKEIKKAARAYKTGDWQELVHQMDEDVKVEYGDHKIDGHEQVQKWVDENRKQLTMSVKSLSVELSGNTASVDMKHDARHNGRPRTQTAHIEIQAHNGRLKRVKIEYTQ | -0.178
11 | DHKHLQEQARRLVDALVTGDPEEAANLADPNARARIGDKTIHGREQFRNAMQRFSNQADHVQVDHFTVQGDKVQVKMSINVNGQSFDVVMVARMDNGHIRHIRFDPDQIRQVQG | 0.052
12 | DEEALKRVEKFWEALNTGNEDELRKQLDPNARIRIGDKDIQGREDMAKWVRRVNRQMKMTVTIEDMQTRPGRAEIDAKASVNHNGRPNQHDVKLSAEFHNGQITSLTVQLKG | 0.592
13 | EDQVIRMVKELWKALRKNNPEKFKDLADKNARFEYGDKHVRGRENMQERMEQQVRDQEVDMRVERVEDRGDHVDVKFEKVVNHNGTPSSHSMTAVYVAENGRLKNVRVKETK | -0.103
14 | DEDAVRVMETYMKIYETGNPEELNRLVDPNVKFNIGDQRIKGREHARKFWRKILQHSRVELRRLDVHTRPNRVEARAEVVVNHNGKPKNFQFTFSAHLHNGRIKEVTIKHSK | 1.34
15 | DQDEQRHQMEEVRKAFQRGDNEKFERLADPNVRYQVGDKTYHGREQASKALSDIREQVDHLEIKDYKIHGNKLDINVVVDINGEKHEYRIIVHIHNGRITRYQFQST | 0.73
16 | DEEDLREIVEEMRTGDEDKFNKNLDENVKVEIGDKTWQGREQAQKMHADVMRRADNVRLKEYEVHNGHVDADLTVEINGRSVEYVMKIEIDNGTMKRIEVTVRDETQEDIQRKVLE | 0.309
17 | DSHLQEEVERFWKQLEHGNRQNLRELADEEVNFVYGDKTIHGREKAATHMSKRVRKIQIEWKTYSAEVHNGKLDATAEWRADHNGKPKDVKMTFYVKVHNGRIKEVNIQEEK | 0.178
18 | EEEQITKLEEVLKDVETGDPNKLIDNFDPNVRYDYGDKKYHGMTNWAKDVVSKAKEQHVTRHVTDVKVQGNHASMTADVNNDHNGRPHKQKQDIQFTFHNGKIKNVHVQETK | -0.667
19 | DEDMSRKAKKFWKAETDGNPQKLKTLIDPNARAHVGDQDLHGRRKIVHWLKHFRDTMRQHWTRYSFDAHGNKVDNRFVVVLQTNGKPERRRNKLTLVFKNGRLVSMRDETKG | 0.128
20 | DDDKRHLAQRFFEAMKRGDPRQALNNMDPNARVVIGDKVIRGRDKFHEHIDKLNKHQRVQYRDVKLHDQGDKITANVDVVRNENGRPHRNVYVAEFSARNGRLTEVEMREDK | -0.138
21 | DEDDANRVAQEILRALIEGDEKKVADLVDEDARISIGDHKFRGREQIREAVREFTEEVDHVKLESITADNGHAEATAILDINGKNQRVTFHVEVHNGRAKEVSMTSG | 1.05
22 | DHDLLTKIKTILELIKTGNFEEVRKNFDPNVDVHVGDKTIHGRERWAKELDKEVRELRWDIKIKRVKDRGDRAHFDMEATFEVNGRPANFRANMVVHMHNGRVKHMNIKIPEEDLKRQKS | 0.823
23 | DETNKKAVEDYIKALETGDDEMAKRLMDKNATVEIGDKEVTGREEIHEQFKRDVKEIRVRIDRVHVKDQGDKVNLRAREKQTVNGHPISFEFQVEFHAHNGKIKHVEWQIDKDQLRKLKG | 0.119
24 | DEDHRERLANHAVEAFQDGDPQQMEELADEDARAEVGDKELTGRERISKMVKTIADNVDHIELKSYEKTGDTVRFHMVLDDNGKQKRLVLVVRIHNGRLKELRIQQS | 1.53
25 | DEHKIATKQMEEFTEAMKRGDEDRMKSNADENVRIEVGDKEVHGQNQFKQTVANILKRVDHIRIKLRDWRNHNGRVDLVYQVNFDHNGRHKNDKYTVRMRIQGDKAKIEHVKAP | 0.349

Row | Sequence | protease stability score
26 | DEELLRNLEEVFKKNNFSTLANLADKDATLIVGDKVYKGKQQVRDWANELDERIDHVSIHSIDNQGDTMVARMVLNVDGVNAEFTLSVEISNGRVQVISLKVTDDEVKDQISKMES | 0.953
27 | EKENVQSWLEAWNALRQGDEKRVEQLVDPNARMQVGDKKVEGMTRHVHKEVRKMKEIRVELDLKTVDTQGDHAVVKFRESRNHNGQPREQDVVVRMRAHNGRVQEVNVHEVS | 0.028
28 | DEEQLDLNRRWMTALKTNNPDDAINLIDPNAKVHVGDKTLSGRENIKTYLKHLIHESRFRFRVQSMNAKNGQVDVSVKQTQSHNGQPSTNRIVVRMEVENGTITSNTIDSKS | -0.073
29 | DEEEKAREYNKTIRQVWHDNNEEDMMRLADENARLEYGDKQLHGRENFRKRQHDIHRRVDKVDVDVKRVEVHNGKFKAQFTFTLVSNGENNKRLYILVAQLHGDKFRIKQIVEQ | 0.099
30 | DEETKARHQIKHMNKLAQTGQLHEVAKQADPNAEFRIGDKTLRGRDNFVRQVKETADTVDHFDVQVRRVHVKGDKAKANIDLRFDVNGKQERRTLRFSAVMDNGEVVVRFMQIN | -0.03
31 | DEEDEREVAKQAVDDLVKGNPDRASELADPNVHVEIGDKTYRGQTQMASALKDFRKNVDSVQIDDLKLHGNKADVDMRVDHNGQQQKYHVIVIVHNGRVSELKIKEK | 1.48
32 | DEDHKAREMMRRWEHNWRTGDPNKLANQFDPNATWDVGDHTIKGREQYAEQIKRNMEQADDVHITVKDVKREGETIVVRFHDVQNHNGQNRVTIVNARFFDDNGSFVMVSFKQE | -0.321
33 | EERVNSVAEQFLDAVHTGDPNRVREQMDKDARMHVGDTTLHGRENMANHWKTLLDEMRITFHDYRIRVTGEEVEIRADVQYNHNGRPKRRVLTYTVEADNGKIHNWKVQEDS | 0.472
34 | DHKELKKYLEQVEKNDFDKLKKNVDEDARVNYGNKTWHGREQVQKYWDDLKKRIDHFDVTHMTVKGDKLHYIVRMNVNGQNFEHKVVIEIQNGKIKQVDARYRDEKQKEKLEKVAD | 0.868
35 | DDDQNRRFKEMLEVRKTGDEHRLKQLLDPNARLNIGDKRIHGREEIARFMKTKFDESRSEVDVKDVKAHNGRISVTADFRNSSNGQPQRYTATMRATIHNGSFQEIQIDTEK | -0.234
36 | DEEDAKRVEEMLEALRTGDWKKATDMADPDARFQIGDKRYHGMHQVAREWKNQYDQMRIEINVKEWNIHNGRVDLKFEQKNDHNGKPDNFRASATFQFHNGQLVEAQYQRDS | 0.634
37 | DHETHMEKFFEDQQKIRNKGDEDKVRNLFDPNARATYGDKTYQGREQIDKFENDVLRRVDHVNVQLRNVRVHNGRADFDARVVFKVNGRHERNHIRITVEINNGRIVIQSVHYG | 0.141
38 | DEEDQLKEIVERVHDVYKHGDEDKVRKMVDPNARARIGDKRIHGHDNFAKMIAEWKRKADSVSVHVEEFRVSGNKMTMTIRIKMDHNGRDTTFRYTAVATNTNGRVRVVRIQEK | 0.049
39 | DHEDRELAKEWEKALHSGDRDQVHELMDPNASVRIGDKVFTGREEVSKHLKKIKDEMRIHIHSVHLEVQNGEVDNKNDLVADVNGVPVRVTVVVRITAQNGKMKELDMRFDPRQKEQMDR | 0.093
40 | DEQKEMKRFANQFNSAIRHGDEKKMADLFDPNARMEVGDTSWNGRRNLEKEWKRRNETIDHARVHLQDVSVDGNSATVVFVLVENVNGEERNDVYVFVAVKHNGKIVIDHMTQK | 0.159
41 | DEHKEAHQFAREMNKALETGDPDRYAQLADPNVKVDIGDKTYKGREDMSQYIEDLLTDADHVSMNIRSIDVQGEKVSLDFEVSNDSNGQQTRRKVKVTAERQGDKLVIVSIKVS | 0.184
42 | DETAVEIARDFLQAITNNNPQEAERLADPNVRWTVGDKSYSGMNEFSKIIKDLNDRSRFEYTDVKLDVTNGRARIELRMSRTVNGKPQSFDMVMNVVVHNGRIKHVHVHNKQ | 1.4
43 | DEKEQADDAVRQLESAFNQGDWKKLADLFDENARVQYGDKELHGRQKWTTLVRDMEREHDHVEARVKSVHYHNGKIHLKIEIKAETNGRTTSVHVRYVAVVTNGRVEFENAKYS | 0.973
44 | EEEDLKQVRKFLDAERDNDEDRLRELVDPNARFKVGDKTYHGMEDYVREVVHRMRQMQFEVDSIDNTVEGDHVRMRIHRTYRHNGKPSTKVYVLKARLHNGKIKHMQQDDDK | 0.152
45 | DEEERAKNFMKQLIDVAQRGDKENAKRLFDENARVEVGDKTYRGRRRVATFLMELSERADHMEMRIQSFDISGDKFDLVLKVERHHNGRQQSFQLKVVATVRNGNLVIVHVRMG | 2.49
46 | EDTALKIARTLFDILESNNPDEFNKLADPNARVDVGDKKIHGREEIKKQMETEIQQLRVHYEIKRYDSRPNRAHVIADVEVNHNGQPQSHKLVMRLHFKNGKVTEIKFEYRK | -0.053
47 | DEHVKETFHSFLHAQTTGDPDKMHKLFDKDARVRYGDKVYHGRETLMRIFHKLRRNIRVDVKFEDIKVDNGKLHAEADMTINHDGKPRQKKVIIELVLHNGKIKQFNQELRG | 0.723
48 | DEEAKDNFETAFKAEMTGDPQKYKKNVDPNAKVTIGDKTVRGREEVAKQLQHRRKESHVEFTDMKVKVQGDKVVVKLKAVDNENGRPDTAHYDIQFHASDGRITDLKVNKTK | -0.049
49 | DHENKKRVEEFLKALERNDPERLNHLMDPNVNIIVGDQRFHGREDAARNMAHEQKEQRFEVEDYRISVHGDDVRVEMIVQAEINGRPFRFTLIVYARIHDGRIQTIEFRIDEDEKRRMDQ | 0.895
50 | DEEATKNAERLMRALNTNNEDEVLEMVDKNATMQYGDKTYHGREEISQAVDERRKEMRVHLRRVTVNAQGDKLDIKANMEVDHNGRPIKVNLRIEAKAHNGRITDIKIETDPELTRQRRT | 0.539
